This data set can be described thus: protein stability index of a GFP-peptide fusion (GPS, HEK-293T) (PSI 1-6); higher = more stable.
Setting [1] is: treatment: DMSO, c terminus: a fixed tail appended.
Where [2] appears, read: treatment: MLN4924 1 uM, 8 h, c terminus: a fixed tail appended.

± gives the standard deviation.
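Further: 24-mer peptide tiles fused after GFP, lentivirally expressed, FACS-sorted into six equal bins by GFP/DsRed ratio, decoded by Illumina sequencing, PSI is the read-weighted mean bin number.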

ISPSTLKNSLFPSPISSISPGLHS [KCNK9]: the protein stability index is 2.71 ± 0.56 under setting [1] and 2.76 ± 0.56 under setting [2].

Sequence ITYQPAASTKMCEQALGKGCGADS [PLK2] had a protein stability index under setting [1] of 4.06 ± 0.36 and a protein stability index under setting [2] of 4.44 ± 0.24.

As to IVALYIASGLTGFIGLEVVAQLFN [ATL3], the protein stability index reads like this: under setting [1], 3.24 ± 0.094; under setting [2], 3.31 ± 0.33.

Turning to IVGIVEKGNRTARIIDKPRVIEVL [SEPHS2], the protein stability index is, setting by setting: under setting [1], 2.56 ± 0.29; under setting [2], 2.27 ± 0.49.

As for IVGNQVQGAPASSFVYVNPEDGRI [PCDHGC5], the protein stability index is, setting by setting: under setting [1], 3.46 ± 0.073; under setting [2], 3.48 ± 0.21.

On to IVILENIAVAWIYGTKKFMQELTE [SLC6A17], for which the protein stability index reads like this: under setting [1], 3.05 ± 1; under setting [2], 2.92 ± 0.2.

Regarding IVISYIHVAAAVLRIRSVEGRKKA [OR3A1], the protein stability index is 2.37 ± 0.6 under setting [1] and 2.05 ± 0.21 under setting [2].

As to KAEPRLPDRVYIHPDSPATGAHWM [TBX6], the protein stability index by setting is: under setting [1], 3.09 ± 0.12; under setting [2], 3.23 ± 0.35.

On to KAFRSDSSFNFFVFFFIFFVQDVL [SCAMP3], for which the protein stability index turned out to be 3.36 ± 0.43 under setting [1] and 3.25 ± 0.17 under setting [2].

In the case of KAGLENSLAETECRYATQLQQIQG [KRT15], the protein stability index by setting is: under setting [1], 3.92 ± 0.049; under setting [2], 4 ± 0.3.

In the case of KAHKYSELIILYEKKGLHEKALQV [VPS39], the protein stability index by setting is: under setting [1], 2.19 ± 0.43; under setting [2], 2.18 ± 0.46.

On to KASWSSLSMDEKVELYRIKFKESF [COX4I1], for which the protein stability index by setting is: under setting [1], 2.55 ± 0.56; under setting [2], 2.85 ± 0.44.

Consider KATASEAVDCKWYIRAPPRSKIYL [NETO1], for which the protein stability index was determined as 2.23 ± 0.54 under setting [1] and 2.25 ± 0.32 under setting [2].

Take KATMQNLNDRLASYLDKVRALEEA [KRT17]: the protein stability index was 3.14 ± 0.19 under setting [1] and 3.43 ± 0.3 under setting [2].

As for KAVCGKCSSKRSSIPLMGFEFEVR [WDFY2], the protein stability index under setting [1] is 2.32 ± 0.12 and the protein stability index under setting [2] was 2.71 ± 0.39.

As to KAVFGKHGPISEVLLIKDRTSKSR [RBMY1A1], the protein stability index under setting [1] is 3.04 ± 0.28 and the protein stability index under setting [2] turned out to be 3.34 ± 0.22.

As to KDHECSECGKTFIYNSHLVVHQRV [ZNF232], the protein stability index runs as follows: under setting [1], 2.56 ± 0.32; under setting [2], 2.88 ± 0.41.

KDKRRIVSSSQDGKVIVWDSFTTN [GNB5]: the protein stability index runs as follows: under setting [1], 3.63 ± 0.049; under setting [2], 3.8 ± 0.19.

Consider KDPKAGDSKSGGSGSESDHTTRSS [DVL3], for which the protein stability index runs as follows: under setting [1], 5.3 ± 0.38; under setting [2], 5.53 ± 0.23.

With KDVAIDMMDSRTSQQLQLIDEQDS [STX5], the protein stability index is 5.4 ± 0.21 under setting [1] and 5.33 ± 0.4 under setting [2].

Turning to KEGARNIRTSERVTLIVDNTRFVV [BTBD10], the protein stability index worked out at 1.95 ± 0.32 under setting [1] and 2.29 ± 0.34 under setting [2].

For KEPVIIECGHNFCKACITRWWEDL [TRIM39], the protein stability index stood at 2.53 ± 0.5 under setting [1] and 2.62 ± 0.36 under setting [2].

On to KGERRREPGGYDSSSTLMSSELET [DVL3], for which the protein stability index is, setting by setting: under setting [1], 5.19 ± 0.19; under setting [2], 5.15 ± 0.13.

As for KGGAVAADGRIEPGDMLLQVNEIN [DVL3], the protein stability index runs as follows: under setting [1], 4.49 ± 0.19; under setting [2], 4.59 ± 0.14.

For the sequence KGKQPTSAENSVAKKEDKVPVKKQ [NANOGP8], the protein stability index turned out to be 5.37 ± 0.32 under setting [1] and 5.44 ± 0.14 under setting [2].

On to KHFCPRTPVILVGCQLDLRYADLE [RHOBTB1], for which the protein stability index turned out to be 2.35 ± 0.49 under setting [1] and 2.19 ± 0.33 under setting [2].

Take KHTVKEHECKLTQEILELIDREVD [IQUB]: the protein stability index under setting [1] came to 4.06 ± 0.23 and the protein stability index under setting [2] is 4.24 ± 0.22.

Take KILVGNRLHLAFKRQVPREQAQAY [RAB40A]: the protein stability index runs as follows: under setting [1], 2.48 ± 0.11; under setting [2], 2.56 ± 0.19.

Regarding KIREKEEWIKLDYHRRHNPKTNED [IQUB], the protein stability index worked out at 4.23 ± 0.28 under setting [1] and 4.74 ± 0.13 under setting [2].

KIRKPRTIYCSLQLQALNRRFQQT [DLX1]: the protein stability index is, setting by setting: under setting [1], 2.45 ± 0.78; under setting [2], 1.95 ± 0.51.

On to KISVPRDVMLEELSLLTNRGSKMF [MYOZ1], for which the protein stability index stood at 2.8 ± 0.28 under setting [1] and 2.76 ± 0.35 under setting [2].

Turning to KKFYEAFSKNLKLGIHEDSTNRRR [HSP90AB1], the protein stability index reads like this: under setting [1], 3.39 ± 0.33; under setting [2], 3.59 ± 0.51.

In the case of KKIQVNSKPSIQPKPLLLPAAPKT [ATF6], the protein stability index came out at 4.18 ± 0.17 under setting [1] and 4.221 ± 0.027 under setting [2].

As for KLEYEEIALDLTPVIEELTNAGFL [FAN1], the protein stability index by setting is: under setting [1], 2.14 ± 0.23; under setting [2], 2.38 ± 0.24.

Consider KLGWGHFSTVWLCWDMQGKRFVAM [SRPK2], for which the protein stability index runs as follows: under setting [1], 2.9 ± 0.87; under setting [2], 2.64 ± 1.2.

For the sequence KLKNDTENHQPVSLSDLEIQASAG [ZNF75A], the protein stability index by setting is: under setting [1], 5.21 ± 0.32; under setting [2], 5.15 ± 0.14.

For the sequence KLPLQIDCLAAWEEWLLVGTKQGH [VPS39], the protein stability index was determined as 2.43 ± 0.41 under setting [1] and 2.47 ± 0.14 under setting [2].

For the sequence KLQGLENWGQDPGVSANASKAWHQ [PBXIP1], the protein stability index stood at 3.27 ± 0.27 under setting [1] and 3.37 ± 0.28 under setting [2].

Regarding KLVADFQRYILYWRKRFTEQPITD [ZNF277], the protein stability index turned out to be 1.99 ± 0.24 under setting [1] and 2.19 ± 0.44 under setting [2].

As for KMKTRELHRESSNFDSIYICPSTF [HDAC6], the protein stability index is, setting by setting: under setting [1], 2.26 ± 0.36; under setting [2], 2.71 ± 0.39.

Consider KPKMNYEKLSRGLRYYYDKNIIHK [ETS2], for which the protein stability index is 2.48 ± 0.19 under setting [1] and 2.52 ± 0.38 under setting [2].

KRGSIPTSLTALSLASASPPLSGR [PPFIA4]: the protein stability index is, setting by setting: under setting [1], 3.99 ± 0.2; under setting [2], 4.17 ± 0.28.

As for KSEEGHPFKAYLDVDITLSSEAFH [RTN3], the protein stability index runs as follows: under setting [1], 2.87 ± 0.45; under setting [2], 2.67 ± 0.41.

Take KSELSDGIAILVGSNDRVQGVISQ [TRIM55]: the protein stability index is 3.46 ± 0.31 under setting [1] and 3.52 ± 0.34 under setting [2].

As to KSLSELVDDKFGTGTKKVTRILDG [PSD2], the protein stability index under setting [1] was determined as 4.44 ± 0.18 and the protein stability index under setting [2] amounted to 4.53 ± 0.23.

KTIKSFFPHSGKDCLLCFPETLPE [C8orf76]: the protein stability index worked out at 2.92 ± 0.26 under setting [1] and 3.03 ± 0.32 under setting [2].

On to KTPVLLTDYPVDLDEIAYFTWAS [MYORG], for which the protein stability index was 2.25 ± 0.15 (treatment: DMSO, c terminus: native) and 2.18 ± 0.3 (treatment: MLN4924 1 uM, 8 h, c terminus: native).

Take KVPVITSSKEEQKLIATSNKPAVK [KCTD10]: the protein stability index was 4.92 ± 0.27 under setting [1] and 5.29 ± 0.23 under setting [2].

As to KWTRVASMSTRRLGVAVAVLGGFL [KLHL20], the protein stability index is, setting by setting: under setting [1], 2.18 ± 0.11; under setting [2], 2.08 ± 0.13.

As to LAELQEQLKAVHEQLAALSQAPVN [BRD3], the protein stability index under setting [1] was 4.2 ± 0.3 and the protein stability index under setting [2] came out at 4.24 ± 0.43.

In turn, LAEYCIKTKVPSNDNSSDLLYDDL [UBE2R2] showed a protein stability index under setting [1] of 4.13 ± 0.17 and a protein stability index under setting [2] of 4.19 ± 0.32.

Regarding LAGMANHGSPQLGEGMFQHQTSVA [TBX5], the protein stability index was found to be 3.83 ± 0.2 under setting [1] and 3.83 ± 0.13 under setting [2].

Turning to LAIQEMVSLTSPSAPPTSRTSSGN [PPFIA4], the protein stability index by setting is: under setting [1], 3.88 ± 0.19; under setting [2], 4.05 ± 0.17.

As for LALIDYLTQKRSQLVKKLNDSDHQ [VPS39], the protein stability index is, setting by setting: under setting [1], 2.51 ± 0.14; under setting [2], 2.77 ± 0.69.

Turning to LAQEAEAWLNYPCFKNWDGSPVSS [OAS1], the protein stability index is, setting by setting: under setting [1], 3.04 ± 0.28; under setting [2], 3.11 ± 0.35.

On to LASGPGKYMPHLCQDSSGEVSCQC, for which the protein stability index is 3.99 ± 0.12 under setting [1] and 4.1 ± 0.27 under setting [2].

On to LASHHNHFSQIVIFMLCTLVLAIP [OR10K2], for which the protein stability index is 3.06 ± 0.22 under setting [1] and 3.13 ± 0.18 under setting [2].

Regarding LCALPVHVAVEHQLPPASRCVLVF [SOAT2], the protein stability index is, setting by setting: under setting [1], 2.71 ± 0.6; under setting [2], 2.71 ± 0.61.

In turn, LDAEDRPAWNSKLQYILAQIGFSV [SLC6A17] returned a protein stability index under setting [1] of 2.19 ± 0.53 and a protein stability index under setting [2] of 2.32 ± 0.21.

On to LDAVQVLSGVSQLLPKSRENYLNR [FCHO1], for which the protein stability index under setting [1] was determined as 3.13 ± 0.22 and the protein stability index under setting [2] came to 3.25 ± 0.18.

With LDEPNAESDYTYSSSYEQFNGELP [SRPK2], the protein stability index was determined as 4.78 ± 0.28 under setting [1] and 4.62 ± 0.19 under setting [2].

For LDFSKKILHTAWHPSENIIAVAAT [PPP2R2B], the protein stability index came out at 2.05 ± 0.2 under setting [1] and 2.3 ± 0.039 under setting [2].

For the sequence LDPSFPVEFVRHGDIIRLEHKETS [POMT2], the protein stability index was 5.71 ± 0.17 under setting [1] and 5.59 ± 0.25 under setting [2].

Regarding LDVEAAHSEILKYFQSVTSNRWLM [STX5], the protein stability index turned out to be 2.06 ± 0.29 under setting [1] and 1.95 ± 0.055 under setting [2].

As to LEEGDELQLAIPRENAQISLDGDV [TNFSF13B], the protein stability index reads like this: under setting [1], 5.43 ± 0.083; under setting [2], 5.29 ± 0.12.

For LEQDLQQVMVSGPNLNETSIVSGG [ARFIP2], the protein stability index worked out at 5.03 ± 0.26 under setting [1] and 4.99 ± 0.12 under setting [2].

LEWNSLGTWDDAFATFCGGLAANG [LRRC45]: the protein stability index by setting is: under setting [1], 2.52 ± 0.3; under setting [2], 2.58 ± 0.31.

Consider LFDNPKLDKELRAMLREKFPEFCS [INTS3], for which the protein stability index runs as follows: under setting [1], 2.03 ± 0.32; under setting [2], 2.54 ± 0.31.

With LFNLSNFLDKSGSHGYDMSTFIRR [SNAP91], the protein stability index by setting is: under setting [1], 2.62 ± 0.62; under setting [2], 2.25 ± 0.35.

On to LFPASPTREAHRESSVPVTPSVPP [FBF1], for which the protein stability index by setting is: under setting [1], 4.88 ± 0.19; under setting [2], 4.84 ± 0.11.

For the sequence LFPNAKKEHVPTWLQNTHVYSWPK [TRAF3IP2], the protein stability index runs as follows: under setting [1], 2.8 ± 0.33; under setting [2], 2.81 ± 0.19.

LFSDPRSTRLTRIHLREDLVQDQD [ZER1]: the protein stability index reads like this: under setting [1], 4.53 ± 0.24; under setting [2], 4.55 ± 0.09.
